This series has as its target T1, SIP2 D1 (Plasmodium falciparum, UniProt C6KSN9 177-235).
T1 sequence: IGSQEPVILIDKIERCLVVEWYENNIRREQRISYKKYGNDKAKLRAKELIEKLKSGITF
The experiment in a line: gcPBM; about 25 ug protein; PBS, 1% milk, 0.2 mg/ml BSA, salmon testes DNA, 0.03% Triton X-100. Particulars: tags: N-terminal GST (pGEX-4T-1), kept; label: surface-attached array probe.

B1: GTGCAC_site10263 (dsDNA)
DNA 1: TTTAATTATTAAATGGTGCACTTGAAATATAAAAAT
DNA 2: ATTTTTATATTTCAAGTGCACCATTTAATAATTAAA
B1: the binding signal was 11.8 ln median PBM intensity, better of two orientations.

B2: GTGCAC_negctrl_site663 (dsDNA)
DNA 1: ATAAAAATAAATAAATTATATAAATGTAATATGAAA
DNA 2: TTTCATATTACATTTATATAATTTATTTATTTTTAT
For B2, the binding signal is 6.92 ln median PBM intensity, better of two orientations.

B3: GTGCAC_negctrl_site404 (dsDNA)
DNA 1: AAAAAAAAAAAGAAGGAAACATTTGACCAAAAATAT
DNA 2: ATATTTTTGGTCAAATGTTTCCTTCTTTTTTTTTTT
For the molecule B3, the binding signal is 6.91 ln median PBM intensity, better of two orientations.

B4: GTGCAC_site9987 (dsDNA)
DNA 1: ATATCTTATAATACGGTGCACTTGACATGAACAACT
DNA 2: AGTTGTTCATGTCAAGTGCACCGTATTATAAGATAT
On to B4, for which the binding signal was 11.9 ln median PBM intensity, better of two orientations.

B5: GTGCAC_site9513 (dsDNA)
DNA 1: TATATATGTATATGTGTGCACCTTATTTCTTTTATT
DNA 2: AATAAAAGAAATAAGGTGCACACATATACATATATA
In the case of B5, the binding signal was 11.7 ln median PBM intensity, better of two orientations.

B6: GTGCAC_site10477 (dsDNA)
DNA 1: AAATATTTCTGCAAGGTGCACTTTATAAATCTTTGA
DNA 2: TCAAAGATTTATAAAGTGCACCTTGCAGAAATATTT
On to B6, for which the binding signal is 12.1 ln median PBM intensity, better of two orientations.

B7: GTGCAC_site10495 (dsDNA)
DNA 1: ATATATATAATATAGGTGCACTACTTATTTAAAAAA
DNA 2: TTTTTTAAATAAGTAGTGCACCTATATTATATATAT
With B7, the binding signal was 11.7 ln median PBM intensity, better of two orientations.

B8: GTGCAC_negctrl_site313 (dsDNA)
DNA 1: GATATAATTATATTATGGTGTTTTTGATAGATATTT
DNA 2: AAATATCTATCAAAAACACCATAATATAATTATATC
With B8, the binding signal is 6.92 ln median PBM intensity, better of two orientations.

B9: GTGCAC_negctrl_site708 (dsDNA)
DNA 1: TTCTATTCAAATGCAAAATTATTAAATAAAAAATAA
DNA 2: TTATTTTTTATTTAATAATTTTGCATTTGAATAGAA
Take B9: the binding signal was 6.9 ln median PBM intensity, better of two orientations.

B10: GTGCAC_site9401 (dsDNA)
DNA 1: AAAAAAAAAAAAAAGGTGCATACTTTGAATTAATAT
DNA 2: ATATTAATTCAAAGTATGCACCTTTTTTTTTTTTTT
As for B10, the binding signal was 11.7 ln median PBM intensity, better of two orientations.

B11: GTGCAC_site10223 (dsDNA)
DNA 1: TTAATTATGGACAGGGTGCACATGAATAATAATACC
DNA 2: GGTATTATTATTCATGTGCACCCTGTCCATAATTAA
As for B11, the binding signal is 11.9 ln median PBM intensity, better of two orientations.

B12: GTGCAC_site10337 (dsDNA)
DNA 1: GGGATATTTTAAAGGGTGCATATTATTAAAATAATG
DNA 2: CATTATTTTAATAATATGCACCCTTTAAAATATCCC
On to B12, for which the binding signal was 11.8 ln median PBM intensity, better of two orientations.

B13: GTGCAC_site10767 (dsDNA)
DNA 1: TGTTTTATTTAGAAGGTGCACATTAATATTAAATAA
DNA 2: TTATTTAATATTAATGTGCACCTTCTAAATAAAACA
B13: the binding signal is 11.8 ln median PBM intensity, better of two orientations.

B14: GTGCAC_negctrl_site248 (dsDNA)
DNA 1: ACTACGTGTCAAAAATATTAATTACAAATGAATAAA
DNA 2: TTTATTCATTTGTAATTAATATTTTTGACACGTAGT
In the case of B14, the binding signal is 6.92 ln median PBM intensity, better of two orientations.

B15: GTGCAC_negctrl_site64 (dsDNA)
DNA 1: TGCAAATTTAACAAAAAAAAAAAAAAAAAAAAAAAA
DNA 2: TTTTTTTTTTTTTTTTTTTTTTTTGTTAAATTTGCA
Regarding B15, the binding signal was 6.92 ln median PBM intensity, better of two orientations.

B16: GTGCAC_site9928 (dsDNA)
DNA 1: TTAACCGGTTTATGGGTGCACATTCTTCTTAAATAA
DNA 2: TTATTTAAGAAGAATGTGCACCCATAAACCGGTTAA
As to B16, the binding signal is 11.9 ln median PBM intensity, better of two orientations.

B17: GTGCAC_site10530 (dsDNA)
DNA 1: ATTAATAATCGAAAGGTGCACTTTGATTTGATAACA
DNA 2: TGTTATCAAATCAAAGTGCACCTTTCGATTATTAAT
For the molecule B17, the binding signal was 12.2 ln median PBM intensity, better of two orientations.

B18: GTGCAC_negctrl_site315 (dsDNA)
DNA 1: ATATACTATTAACCACATATGTGTGTTAATTTATAT
DNA 2: ATATAAATTAACACACATATGTGGTTAATAGTATAT
As for B18, the binding signal was 6.87 ln median PBM intensity, better of two orientations.

B19: GTGCAC_site10453 (dsDNA)
DNA 1: TATAAGTAGATAAGGGTGCACAATATAAATATATAG
DNA 2: CTATATATTTATATTGTGCACCCTTATCTACTTATA
In the case of B19, the binding signal was 12.1 ln median PBM intensity, better of two orientations.

B20: GTGCAC_site10229 (dsDNA)
DNA 1: CACATTAATTTTTGGGTGCACTTGGGAAATTTTGGT
DNA 2: ACCAAAATTTCCCAAGTGCACCCAAAAATTAATGTG
Consider B20, for which the binding signal was 11.6 ln median PBM intensity, better of two orientations.

B21: GTGCAC_site10597 (dsDNA)
DNA 1: TGAACTCAACAAAGGGTGCATAACAAAAATAGACGT
DNA 2: ACGTCTATTTTTGTTATGCACCCTTTGTTGAGTTCA
Turning to B21, the binding signal is 11.6 ln median PBM intensity, better of two orientations.

B22: GTGCAC_negctrl_site359 (dsDNA)
DNA 1: ATATAAAAAAGGGAGGTAAATGAATGTGAAACCCAA
DNA 2: TTGGGTTTCACATTCATTTACCTCCCTTTTTTATAT
Regarding B22, the binding signal was 6.92 ln median PBM intensity, better of two orientations.

B23: GTGCAC_site10264 (dsDNA)
DNA 1: TTATTTATTTATTGGGTGCACTTGATTTAAATATGC
DNA 2: GCATATTTAAATCAAGTGCACCCAATAAATAAATAA
Turning to B23, the binding signal was 11.8 ln median PBM intensity, better of two orientations.

B24: GTGCAC_negctrl_site392 (dsDNA)
DNA 1: TTTATTATTATATTATTTTAATTTTTCTTTAGTACA
DNA 2: TGTACTAAAGAAAAATTAAAATAATATAATAATAAA
In the case of B24, the binding signal is 6.89 ln median PBM intensity, better of two orientations.

B25: GTGCAC_negctrl_site581 (dsDNA)
DNA 1: AAAAAAAAATATATATAAAATTAAAAAATGTAATAT
DNA 2: ATATTACATTTTTTAATTTTATATATATTTTTTTTT
With B25, the binding signal is 6.85 ln median PBM intensity, better of two orientations.

B26: GTGCAC_site9503 (dsDNA)
DNA 1: ATCTATTTGTAAAGGGTGCGCATATCAATAAAAAAT
DNA 2: ATTTTTTATTGATATGCGCACCCTTTACAAATAGAT
Take B26: the binding signal was 11.6 ln median PBM intensity, better of two orientations.

B27: GTGCAC_site10574 (dsDNA)
DNA 1: AATTAATGGCTAAAGGTGCACAATATATATATTACA
DNA 2: TGTAATATATATATTGTGCACCTTTAGCCATTAATT
As for B27, the binding signal is 11.7 ln median PBM intensity, better of two orientations.

B28: GTGCAC_site9943 (dsDNA)
DNA 1: AATTAATGGTTAAAGGTGCACAATACATATATTACA
DNA 2: TGTAATATATGTATTGTGCACCTTTAACCATTAATT
Consider B28, for which the binding signal is 11.6 ln median PBM intensity, better of two orientations.

B29: GTGCAC_negctrl_site265 (dsDNA)
DNA 1: TATTTTTTTTCTTTATTTATAACGCTCAATATATTC
DNA 2: GAATATATTGAGCGTTATAAATAAAGAAAAAAAATA
Turning to B29, the binding signal is 6.85 ln median PBM intensity, better of two orientations.

B30: GTGCAC_site9617 (dsDNA)
DNA 1: TTTTTTTTTTTTTGTGTGCACCTTATTTTTTTGTAT
DNA 2: ATACAAAAAAATAAGGTGCACACAAAAAAAAAAAAA
For B30, the binding signal is 11.8 ln median PBM intensity, better of two orientations.

B31: GTGCAC_site9855 (dsDNA)
DNA 1: TTTATTTTCCAAAGGGTGCACATAGTTAAAACGATA
DNA 2: TATCGTTTTAACTATGTGCACCCTTTGGAAAATAAA
For B31, the binding signal was 11.9 ln median PBM intensity, better of two orientations.

B32: GTGCAC_site10157 (dsDNA)
DNA 1: TTTATTTTCCAAAGGGTGCACATAGTTGAAACGATA
DNA 2: TATCGTTTCAACTATGTGCACCCTTTGGAAAATAAA
In the case of B32, the binding signal is 11.9 ln median PBM intensity, better of two orientations.

B33: GTGCAC_negctrl_site445 (dsDNA)
DNA 1: TATGGTGTAATTTAGTGTATTATATTATTTTGGTTG
DNA 2: CAACCAAAATAATATAATACACTAAATTACACCATA
Turning to B33, the binding signal was 6.86 ln median PBM intensity, better of two orientations.

B34: GTGCAC_site9895 (dsDNA)
DNA 1: ATTGAATTCCAACTGGTGCACCAGTAAGATTGAAAA
DNA 2: TTTTCAATCTTACTGGTGCACCAGTTGGAATTCAAT
As to B34, the binding signal was 11.6 ln median PBM intensity, better of two orientations.

B35: GTGCAC_site9881 (dsDNA)
DNA 1: TCCGCATGTACATGGGTGCACATAACACCCATTTAA
DNA 2: TTAAATGGGTGTTATGTGCACCCATGTACATGCGGA
For the molecule B35, the binding signal is 11.6 ln median PBM intensity, better of two orientations.

B36: GTGCAC_negctrl_site95 (dsDNA)
DNA 1: GCAGTCAAAAAGGAAAATATAAAAAAAGTATATGTG
DNA 2: CACATATACTTTTTTTATATTTTCCTTTTTGACTGC
With B36, the binding signal was 6.87 ln median PBM intensity, better of two orientations.

B37: GTGCAC_negctrl_site184 (dsDNA)
DNA 1: TATTCTATATTTCTATTTAGAAAACATCCCAGTGTG
DNA 2: CACACTGGGATGTTTTCTAAATAGAAATATAGAATA
Consider B37, for which the binding signal was 6.86 ln median PBM intensity, better of two orientations.

B38: GTGCAC_site9899 (dsDNA)
DNA 1: CTTGTGCTTTATAGGGTGCACATTTTGTTTTGGTAA
DNA 2: TTACCAAAACAAAATGTGCACCCTATAAAGCACAAG
B38: the binding signal was 11.9 ln median PBM intensity, better of two orientations.

B39: GTGCAC_negctrl_site11 (dsDNA)
DNA 1: TCTTATAACAAAAAAAAATAAAAAATAAAACTATAT
DNA 2: ATATAGTTTTATTTTTTATTTTTTTTTGTTATAAGA
Consider B39, for which the binding signal is 6.87 ln median PBM intensity, better of two orientations.

B40: GTGCAC_site10010 (dsDNA)
DNA 1: AACCATTGGGAAAGGGTGCACATATATATATATATA
DNA 2: TATATATATATATATGTGCACCCTTTCCCAATGGTT
As to B40, the binding signal is 12.2 ln median PBM intensity, better of two orientations.

B41: GTGCAC_site10047 (dsDNA)
DNA 1: TATAATTTTTACTGGGTGCACTCGATATTTTAAATA
DNA 2: TATTTAAAATATCGAGTGCACCCAGTAAAAATTATA
For B41, the binding signal was 12.2 ln median PBM intensity, better of two orientations.

Source of the values: article PMC11417369, “DNA sequence and chromatin differentiate sequence-specific transcription factor binding in the human malaria parasite Plasmodium falciparum”.
